B1: Late cornified envelope protein 1B (Homo sapiens), Q5T7P3 (parent)
chain: MSCQQNQQQCQPPPKCIPKCPPKCLTPRCPPKCPPKCPPVSSCCSVSSGGCCGSSSGGSCGSSSGGCCSSGGGGCCLSHHRRRRSHCHRPQSSGCCSQPSGGSSCCGGGSGQHSGGCC
partner: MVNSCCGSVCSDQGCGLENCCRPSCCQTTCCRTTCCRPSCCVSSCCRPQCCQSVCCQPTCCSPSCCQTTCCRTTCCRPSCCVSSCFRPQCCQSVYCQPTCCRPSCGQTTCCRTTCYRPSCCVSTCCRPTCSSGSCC
B2: Acetylcholine receptor subunit gamma (Homo sapiens), P07510 (parent)
chain: MHGGQGPLLLLLLLAVCLGAQGRNQEERLLADLMQNYDPNLRPAERDSDVVNVSLKLTLTNLISLNEREEALTTNVWIEMQWCDYRLRWDPRDYEGLWVLRVPSTMVWRPDIVLENNVDGVFEVALYCNVLVSPDGCIYWLPPAIFRSACSISVTYFPFDWQNCSLIFQSQTYSTNEIDLQLSQEDGQTIEWIFIDPEAFTENGEWAIQHRPAKMLLDPAAPAQEAGHQKVVFYLLIQRKPLFYVINIIAPCVLISSVAILIHFLPAKAGGQKCTVAINVLLAQTVFLFLVAKKVPETSQAVPLISKYLTFLLVVTILIVVNAVVVLNVSLRSPHTHSMARGVRKVFLRLLPQLLRMHVRPLAPAAVQDTQSRLQNGSSGWSITTGEEVALCLPRSELLFQQWQRQGLVAAALEKLEKGPELGLSQFCGSLKQAAPAIQACVEACNLIACARHQQSHFDNGNEEWFLVGRVLDRVCFLAMLSLFICGTAGIFLMAHYNRVPALPFPGDPRPYLPSPD
partner: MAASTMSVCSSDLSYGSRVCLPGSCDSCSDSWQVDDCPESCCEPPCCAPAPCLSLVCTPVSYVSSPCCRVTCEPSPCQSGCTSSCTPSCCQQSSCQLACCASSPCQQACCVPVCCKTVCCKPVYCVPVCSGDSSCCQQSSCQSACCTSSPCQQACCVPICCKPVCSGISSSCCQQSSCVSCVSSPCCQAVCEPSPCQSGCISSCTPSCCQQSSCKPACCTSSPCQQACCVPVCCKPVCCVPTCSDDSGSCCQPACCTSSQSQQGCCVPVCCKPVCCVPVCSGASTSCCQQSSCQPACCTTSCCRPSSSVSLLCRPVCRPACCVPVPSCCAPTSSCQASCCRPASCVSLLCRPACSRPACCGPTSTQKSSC
B3: Peripheral plasma membrane protein CASK (Homo sapiens), O14936 (parent)
chain: MADDDVLFEDVYELCEVIGKGPFSVVRRCINRETGQQFAVKIVDVAKFTSSPGLSTEDLKREASICHMLKHPHIVELLETYSSDGMLYMVFEFMDGADLCFEIVKRADAGFVYSEAVASHYMRQILEALRYCHDNNIIHRDVKPHCVLLASKENSAPVKLGGFGVAIQLGESGLVAGGRVGTPHFMAPEVVKREPYGKPVDVWGCGVILFILLSGCLPFYGTKERLFEGIIKGKYKMNPRQWSHISESAKDLVRRMLMLDPAERITVYEALNHPWLKERDRYAYKIHLPETVEQLRKFNARRKLKGAVLAAVSSHKFNSFYGDPPEELPDFSEDPTSSGLLAAERAVSQVLDSLEEIHALTDCSEKDLDFLHSVFQDQHLHTLLDLYDKINTKSSPQIRNPPSDAVQRAKEVLEEISCYPENNDAKELKRILTQPHFMALLQTHDVVAHEVYSDEALRVTPPPTSPYLNGDSPESANGDMDMENVTRVRLVQFQKNTDEPMGITLKMNELNHCIVARIMHGGMIHRQGTLHVGDEIREINGISVANQTVEQLQKMLREMRGSITFKIVPSYRTQSSSCERDSPSTSRQSPANGHSSTNNSVSDLPSTTQPKGRQIYVRAQFEYDPAKDDLIPCKEAGIRFRVGDIIQIISKDDHNWWQGKLENSKNGTAGLIPSPELQEWRVACIAMEKTKQEQQASCTWFGKKKKQYKDKYLAKHNAVFDQLDLVTYEEVVKLPAFKRKTLVLLGAHGVGRRHIKNTLITKHPDRFAYPIPHTTRPPKKDEENGKNYYFVSHDQMMQDISNNEYLEYGSHEDAMYGTKLETIRKIHEQGLIAILDVEPQALKVLRTAEFAPFVVFIAAPTITPGLNEDESLQRLQKESDILQRTYAHYFDLTIINNEIDETIRHLEEAVELVCTAPQWVPVSWVY
partner: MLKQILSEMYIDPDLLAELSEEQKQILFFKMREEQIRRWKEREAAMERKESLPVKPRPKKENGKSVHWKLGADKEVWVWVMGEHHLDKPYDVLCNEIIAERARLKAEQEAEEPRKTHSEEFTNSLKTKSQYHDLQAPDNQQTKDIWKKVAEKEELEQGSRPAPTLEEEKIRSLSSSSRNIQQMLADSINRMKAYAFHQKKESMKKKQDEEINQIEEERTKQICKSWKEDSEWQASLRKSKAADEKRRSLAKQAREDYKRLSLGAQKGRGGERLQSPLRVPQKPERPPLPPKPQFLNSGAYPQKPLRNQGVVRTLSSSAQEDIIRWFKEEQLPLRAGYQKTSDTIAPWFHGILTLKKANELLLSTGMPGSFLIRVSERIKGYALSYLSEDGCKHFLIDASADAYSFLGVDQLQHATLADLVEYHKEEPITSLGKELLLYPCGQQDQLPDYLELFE
B4: Histone-lysine N-methyltransferase SMYD1 (Homo sapiens), Q8NB12 (parent)
chain: MTIGRMENVEVFTAEGKGRGLKATKEFWAADIIFAERAYSAVVFDSLVNFVCHTCFKRQEKLHRCGQCKFAHYCDRTCQKDAWLNHKNECSAIKRYGKVPNENIRLAARIMWRVEREGTGLTEGCLVSVDDLQNHVEHFGEEEQKDLRVDVDTFLQYWPPQSQQFSMQYISHIFGVINCNGFTLSDQRGLQAVGVGIFPNLGLVNHDCWPNCTVIFNNGNHEAVKSMFHTQMRIELRALGKISEGEELTVSYIDFLNVSEERKRQLKKQYYFDCTCEHCQKKLKDDLFLGVKDNPKPSQEVVKEMIQFSKDTLEKIDKARSEGLYHEVVKLCRECLEKQEPVFADTNIYMLRMLSIVSEVLSYLQAFEEASFYARRMVDGYMKLYHPNNAQLGMAVMRAGLTNWHAGNIEVGHGMICKAYAILLVTHGPSHPITKDLEAMRVQTEMELRMFRQNEFMYYKMREAALNNQPMQVMAEPSNEPSPALFHKKQ
partner: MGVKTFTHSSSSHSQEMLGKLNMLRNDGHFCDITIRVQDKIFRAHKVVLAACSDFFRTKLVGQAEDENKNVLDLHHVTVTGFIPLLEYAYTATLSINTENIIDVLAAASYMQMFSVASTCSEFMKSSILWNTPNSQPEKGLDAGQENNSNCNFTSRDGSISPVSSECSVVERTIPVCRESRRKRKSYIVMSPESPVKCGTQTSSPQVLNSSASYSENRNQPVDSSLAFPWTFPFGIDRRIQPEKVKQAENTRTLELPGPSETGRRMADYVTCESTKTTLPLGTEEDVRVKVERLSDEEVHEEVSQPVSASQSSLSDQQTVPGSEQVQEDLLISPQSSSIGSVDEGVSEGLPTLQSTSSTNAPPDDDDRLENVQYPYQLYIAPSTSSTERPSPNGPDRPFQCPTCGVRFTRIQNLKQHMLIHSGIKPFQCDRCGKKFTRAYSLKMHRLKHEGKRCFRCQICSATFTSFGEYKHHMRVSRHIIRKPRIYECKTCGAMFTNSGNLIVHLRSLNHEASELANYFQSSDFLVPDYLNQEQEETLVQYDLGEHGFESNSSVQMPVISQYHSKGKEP
B5: Zinc finger protein ZXDC (Homo sapiens), Q2QGD7 (parent)
chain: MDLPALLPAPTARGGQHGGGPGPLRRAPAPLGASPARRRLLLVRGPEDGGPGARPGEASGPSPPPAEDDSDGDSFLVLLEVPHGGAAAEAAGSQEAEPGSRVNLASRPEQGPSGPAAPPGPGVAPAGAVTISSQDLLVRLDRGVLALSAPPGPATAGAAAPRRAPQASGPSTPGYRCPEPQCALAFAKKHQLKVHLLTHGGGQGRRPFKCPLEGCGWAFTTSYKLKRHLQSHDKLRPFGCPVGGCGKKFTTVYNLKAHMKGHEQESLFKCEVCAERFPTHAKLSSHQRSHFEPERPYKCDFPGCEKTFITVSALFSHNRAHFREQELFSCSFPGCSKQYDKACRLKIHLRSHTGERPFICDSDSCGWTFTSMSKLLRHRRKHDDDRRFTCPVEGCGKSFTRAEHLKGHSITHLGTKPFECPVEGCCARFSARSSLYIHSKKHVQDVGAPKSRCPVSTCNRLFTSKHSMKAHMVRQHSRRQDLLPQLEAPSSLTPSSELSSPGQSELTNMDLAALFSDTPANASGSAGGSDEALNSGILTIDVTSVSSSLGGNLPANNSSLGPMEPLVLVAHSDIPPSLDSPLVLGTAATVLQQGSFSVDDVQTVSAGALGCLVALPMKNLSDDPLALTSNSNLAAHITTPTSSSTPRENASVPELLAPIKVEPDSPSRPGAVGQQEGSHGLPQSTLPSPAEQHGAQDTELSAGTGNFYLESGGSARTDYRAIQLAKEKKQRGAGSNAGASQSTQRKIKEGKMSPPHFHASQNSWLCGSLVVPSGGRPGPAPAAGVQCGAQGVQVQLVQDDPSGEGVLPSARGPATFLPFLTVDLPVYVLQEVLPSSGGPAGPEATQFPGSTINLQDLQ
B6: Muscleblind-like protein 1 (Homo sapiens), Q9NR56 (parent)
chain: MAVSVTPIRDTKWLTLEVCREFQRGTCSRPDTECKFAHPSKSCQVENGRVIACFDSLKGRCSRENCKYLHPPPHLKTQLEINGRNNLIQQKNMAMLAQQMQLANAMMPGAPLQPVPMFSVAPSLATNASAAAFNPYLGPVSPSLVPAEILPTAPMLVTGNPGVPVPAAAAAAAQKLMRTDRLEVCREYQRGNCNRGENDCRFAHPADSTMIDTNDNTVTVCMDYIKGRCSREKCKYFHPPAHLQAKIKAAQYQVNQAAAAQAAATAAAMTQSAVKSLKRPLEATFDLGIPQAVLPPLPKRPALEKTNGATAVFNTGIFQYQQALANMQLQQHTAFLPPVPMVHGATPATVSAATTSATSVPFAATATANQIPIISAEHLTSHKYVTQM
partner: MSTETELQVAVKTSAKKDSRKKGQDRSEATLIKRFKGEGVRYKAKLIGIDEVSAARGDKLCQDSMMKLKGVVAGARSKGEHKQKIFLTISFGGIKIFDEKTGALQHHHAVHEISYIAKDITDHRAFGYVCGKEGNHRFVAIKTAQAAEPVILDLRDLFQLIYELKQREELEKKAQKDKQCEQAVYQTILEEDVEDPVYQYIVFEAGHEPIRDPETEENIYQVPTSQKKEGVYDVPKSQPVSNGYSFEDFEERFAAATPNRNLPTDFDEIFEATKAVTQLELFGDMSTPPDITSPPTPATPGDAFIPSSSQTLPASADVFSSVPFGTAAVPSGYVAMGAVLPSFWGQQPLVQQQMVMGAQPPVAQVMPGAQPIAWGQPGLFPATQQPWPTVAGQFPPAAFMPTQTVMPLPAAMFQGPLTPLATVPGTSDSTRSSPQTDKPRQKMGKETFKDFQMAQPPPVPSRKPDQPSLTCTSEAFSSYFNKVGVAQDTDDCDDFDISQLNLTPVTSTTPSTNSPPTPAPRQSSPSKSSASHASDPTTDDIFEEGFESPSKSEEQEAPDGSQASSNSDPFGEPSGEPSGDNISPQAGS

Variants of: B1
Details: with kra42_human KRTAP4-2, Q9BYR5

effect of a mutation on the interaction	Variant
with no effect	C16Y

Variants of: B2
Details: with kr107_human KRTAP10-7, P60409

effect of a mutation on the interaction	Variant
with no effect	I448T

Variants of: B3
Details: with sh24a_human SH2D4A

effect of a mutation on the interaction	Variant
with no effect	G197R

Variants of: B4
Details: with zbt44_human ZBTB44, Q8NCP5

effect of a mutation on the interaction	Variant
disrupting interaction strength	Q443R

Variants of: B5
Details: with wdr5_human WDR5, P61964

effect of a mutation on the interaction	Variant
with no effect	T589M

Variants of: B6
Details: with dab1_human DAB1, O75553

effect of a mutation on the interaction	Variant
with no effect	V45A
